Data reported in publication PMC3156243, “Properties and Crystal Structure of Methylenetetrahydrofolate Reductase from Thermus thermophilus HB8” (PLoS ONE, 2011).

Tests used:
Assay in all cases: purified protein
purified protein [1] = substrate: Cc1cc2nc3c(=O)[nH]c(=O)nc-3n(C[C@H](O)[C@H](O)[C@H](O)COP(=O)(O)OP(=O)(O)OC[C@H]3O[C@@H](n4cnc5c(N)ncnc54)[C@H](O)[C@@H]3O)c2cc1C; settings: active center of the β[…]α[…] barrel; Glu18 near the si-face of the isoalloxazine ring, Asp109 near C2; non-covalently bound; varied: cofactor
purified protein [2] = substrate: NC(=O)C1=CN([C@@H]2O[C@H](COP(=O)(O)OP(=O)(O)OC[C@H]3O[C@@H](n4cnc5c(N)ncnc54)[C@H](O)[C@@H]3O)[C@@H](O)[C@H]2O)C=CC1; settings: FAD; 25.0 °C
purified protein [3] = substrate: Nc1nc2c(c(=O)[nH]1)N1CN(c3ccc(C(=O)N[C@@H](CCC(=O)O)C(=O)O)cc3)C[C@H]1CN2; settings: FAD; 50.0 °C

B1: MTHFR (methylenetetrahydrofolate reductase) (Thermus thermophilus HB8) (protein)
chain: MKIRDLLKARRGPLFSFEFFPPKDPEGEEALFRTLEELKAFRPAFVSITYGAMGSTRERSVAWAQRIQSLGLNPLAHLTVAGQSRKEVAEVLHRFVESGVENLLALRGDPPRGERVFRPHPEGFRYAAELVALIRERYGDRVSVGGAAYPEGHPESESLEADLRHFKAKVEAGLDFAITQLFFNNAHYFGFLERARRAGIGIPILPGIMPVTSYRQLRRFTEVCGASIPGPLLAKLERHQDDPKAVLEIGVEHAVRQVAELLEAGVEGVHFYTLNKSPATRMVLERLGLRPASGQP
B1 was tested, and the Km (purified protein [1]) was 5 µM, the Km (purified protein [2]) was 9.7 ± 2.1 µM and the Km (purified protein [3]) was 180 ± 23 µM.
